The record followed here is US20140302035A1 (MERRIMACK PHARMACEUTICALS, published 2014).

What is called Kd is the equilibrium constant for the complex coming apart. In general, koff refers to a measure of how fast the partners let go of each other.

Numbering of substitutions follows the chain as printed.

Assay [1] addresses T1, Human EpCAM-Fc-his tagged (human).
T1 construct: also called Recombinant polyhistidine-tagged EpCAM-Fc; recombinant EpCAM
Briefly: BLI (ForteBio Octet), antibody loaded on Protein A tips, recombinant polyhistidine-tagged EpCAM-Fc in solution. On the technique in general: Biolayer interferometry detects binding as a change in optical thickness at a sensor tip.

The target in assay [2] is T1, Human EpCAM-Fc-his tagged. Kind of assay: BLI (ForteBio Octet), repeat analysis, antibody on Protein A tips, recombinant polyhistidine-tagged EpCAM-Fc in solution, 1:1 model. The protocol: (§1) For Octet analysis, all reagents and samples are brought to room temperature. Protein A sensor tips (ForteBio, #18-5010) are hydrated for 10 minutes in 1×PBS. Assay steps include: 1-2 minutes of equilibration in 1×PBS, 4 minutes of antibody loading (concentration of 50 μg/ml in 1×PBS), 1-2 minutes of baseline stabilization, 4 minutes of antibody:antigen association, and 4 minutes of antibody:antigen dissociation. 1×PBS is used as the matrix throughout. Data are analyzed with Octet Data Analysis software, processed, and fit to a 1:1 binding model to determine kinetic parameters (Kd, kₒₙ and kdiss).
Table A-3 describes a repeat analysis for Ab#5, Ab#7, and Ab#13. For the repeat experiment, Kd and kdiss values for Ab#5, Ab#7, and Ab#13 are substantially equivalent to those determined for Ab#5, Ab#7, and Ab#13 in the initial experiment.

The target in assay [3] is T1, Human EpCAM-Fc-his tagged. Briefly: BLI (ForteBio Octet), antibody loaded on Protein A tips, recombinant polyhistidine-tagged EpCAM-Fc in solution, 1:1 model. The essentials:
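Biolayer interferometry at room temperature in 1×PBS: antibody (50 μg/ml) captured on Protein A tips for 4 min, then 4 min association with antigen in solution and 4 min dissociation. Kd, kₒₙ and kdiss were obtained from a 1:1 binding model fit.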

The next assay deals with T2, cMet-his (Homo sapiens (Human), UniProt P08581 25-933).
T2 construct: also called his tagged cMET; Recombinant polyhistidine-tagged c-Met
Briefly: BLI (ForteBio Octet), antibody loaded on Protein A tips, recombinant polyhistidine-tagged c-Met in solution, 1:1 model. The protocol:
as §1
Table A-4 describes approximate c-Met binding affinity and dissociation rate as determined for Ab#5 and Ab#7.

T1 sequence (chain, as listed by the source): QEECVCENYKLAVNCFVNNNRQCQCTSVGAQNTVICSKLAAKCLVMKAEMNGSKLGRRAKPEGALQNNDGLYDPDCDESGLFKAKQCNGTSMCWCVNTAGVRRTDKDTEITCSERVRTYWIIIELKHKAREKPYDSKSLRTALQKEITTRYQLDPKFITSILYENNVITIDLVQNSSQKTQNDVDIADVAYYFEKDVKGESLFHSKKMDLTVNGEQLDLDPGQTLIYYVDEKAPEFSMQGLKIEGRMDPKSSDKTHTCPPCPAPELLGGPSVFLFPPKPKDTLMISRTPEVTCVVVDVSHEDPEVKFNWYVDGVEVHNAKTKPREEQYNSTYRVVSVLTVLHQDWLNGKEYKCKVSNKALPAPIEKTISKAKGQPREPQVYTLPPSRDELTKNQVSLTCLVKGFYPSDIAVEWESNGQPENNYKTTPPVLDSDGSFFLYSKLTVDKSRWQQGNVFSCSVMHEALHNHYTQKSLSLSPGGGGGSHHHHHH

B1: Ab#2 (bispecific antibody, human IgG1, kappa)
heavy: QLQLQESGPGLVKPSETLSLTCTVSGGSISSSVYYWSWIRQPPGKGLEWIGVIYPSGNTYYSPSLKSRVTISVDTSKNQFSLKLSSVTAADTAVYYCARTIYDLFDIWGQGTMVTVSSASTKGPSVFPLAPSSKSTSGGTAALGCLVKDYFPEPVTVSWNSGALTSGVHTFPAVLQSSGLYSLSSVVTVPSSSLGTQTYICNVNHKPSNTKVDKKVEPKSCDKTHTCPSCPAPEFLGGPSVFLFPPKPKDTLMISRTPEVTCVVVDVSQEDPEVQFNWYVDGVEVHNAKTKPREEQFNSKYRVVSVLTVLHQDWLNGKEYKCKVSNKGLPSSIEKTISKAKGQPREPQVYTLPPSREEMTKNQVSLSCAVKGFYPSDIAVEWESNGQPENNYKTTPPVLDSDGSFFLVSKLTVDKSRWQQGNVFSCSVMHEALHNHYTQKSLSLSKSCDKTGGGGSGGGGSGGGGSGGGGSGGGGSGGGGSGGGGSGGGGSCPSCPAPEFLGGPSVFLFPPKPKDTLMISRTPEVTCVVVDVSQEDPEVQFNWYVDGVEVHNAKTKPREEQFNSDYRVVSVLTVLHQDWLNGKEYKCKVSNKGLPSSIEKTISKAKGQPREPQVYTLPPSREEMTKNQVSLWCLVKGFYPSDIAVEWESNGQPENNYKTTPPVLDSDGSFFLYSKLTVDKSRWQQGNVFSCSVMHEALHNHYTQKSLSLSGECGGGGSGGGGSQVQLVQSGSELKKPGESVKVSCKASGYTFTNYGMHWVRQAPGQGLKWMGWINTYTGESTYADDFKGRFAFSLDTSASTAYLQISSLKAEDTAVYFCARFAIKGDYWGQGTLVTVSSASTGGGGSGGGGSGGGGSGGGGSDIVMTQSPLSLPVTPGEPASISCRSTKSLLHSDGITYLYWYLQKPGQSPQLLIYQLSNLASGVPDRFSSSGSGTDFTLKISRVEAEDEGVYYCAQNLEIPYTFGQGTKVEIK
light: DIQMTQSPSSVSASVGDRVTITCRASQGISSWLAWYQQKPGKAPKLLIYAASSLQSGVPSRFSGSGSGTDFTLTISSLQPEDFATYYCLQANSFPPTFGGGTKVEIKRTVAAPSVFIFPPSDEQLKSGTASVVCLLNNFYPREAKVQWKVDNALQSGNSQESVTEQDSKDSTYSLSSTLTLSKADYEKHKVYACEVTHQGLSSPVTKSFNRGEC
notes: Anti-c-Met Fab / tandem Fc / anti-EpCAM scFv TFcBA; also called Antibody #2
In the case of B1, the binding result in assay [1] is listed as “no binding”.

B2: Ab#13 (bispecific antibody)
heavy: QLQLQESGPGLVKPSETLSLTCTVSGGSISSSVYYWSWIRQPPGKGLEWIGVIYPSGNTYYSPSLKSRVTISVDTSKNQFSLKLSSVTAADTAVYYCARTIYDLFDIWGQGTMVTVSSASTKGPSVFPLAPSSKSTSGGTAALGCLVKDYFPEPVTVSWNSGALTSGVHTFPAVLQSSGLYSLSSVVTVPSSSLGTQTYICNVNHKPSNTKVDKKVEPKSCDKTHTCPSCPAPEFLGGPSVFLFPPKPKDTLMISRTPEVTCVVVDVSQEDPEVQFNWYVDGVEVHNAKTKPREEQFNSKYRVVSVLTVLHQDWLNGKEYKCKVSNKGLPSSIEKTISKAKGQPREPQVYTLPPSREEMTKNQVSLSCAVKGFYPSDIAVEWESNGQPENNYKTTPPVLDSDGSFFLVSKLTVDKSRWQQGNVFSCSVMHEALHNHYTQKSLSLSKSCDKTGGGGSGGGGSGGGGSGGGGSGGGGSGGGGSGGGGSGGGGSCPSCPAPEFLGGPSVFLFPPKPKDTLMISRTPEVTCVVVDVSQEDPEVQFNWYVDGVEVHNAKTKPREEQFNSDYRVVSVLTVLHQDWLNGKEYKCKVSNKGLPSSIEKTISKAKGQPREPQVYTLPPSREEMTKNQVSLWCLVKGFYPSDIAVEWESNGQPENNYKTTPPVLDSDGSFFLYSKLTVDKSRWQQGNVFSCSVMHEALHNHYTQKSLSLSGECGGGGSGGGGSDIVMTQSPSSLSASVGDKATITCRSTKSLLHSNGITYLYWYLQKPGKAPKLLIYQMSNLASGVPDRFSSSGSGTEFTLTISSVQPEDEGTYYCAQNLEIPRTFGQGTKLEIKRTPSHNSHQVPSAGGPTANSGTSGSQVQLQQSGGGLVKPGESVKISCAASGYTFTNYGMNWVKQAPGKGLKWMGWINTYTGESTYADDFKGRFTFSLETSASAAYLQINSLRPEDTAVYFCARFAIKGDYWGQGTTVTVSS
light: B1 light
notes: Anti-c-Met Fab / tandem Fc / anti-EpCAM scFv TFcBA; also called Antibody #13
Regarding B2, in assay [2], the Kd was determined as 4.69 nM and the koff was 0.000323 s⁻¹. Also, in assay [3], the Kd was 4.98 nM and the koff was 0.00036 s⁻¹.

B3: Ab#7 (bispecific antibody, human IgG1, kappa)
heavy: QLQLQESGPGLVKPSETLSLTCTVSGGSISSSVYYWSWIRQPPGKGLEWIGVIYPSGNTYYSPSLKSRVTISVDTSKNQFSLKLSSVTAADTAVYYCARTIYDLFDIWGQGTMVTVSSASTKGPSVFPLAPSSKSTSGGTAALGCLVKDYFPEPVTVSWNSGALTSGVHTFPAVLQSSGLYSLSSVVTVPSSSLGTQTYICNVNHKPSNTKVDKKVEPKSCDKTHTCPSCPAPEFLGGPSVFLFPPKPKDTLMISRTPEVTCVVVDVSQEDPEVQFNWYVDGVEVHNAKTKPREEQFNSKYRVVSVLTVLHQDWLNGKEYKCKVSNKGLPSSIEKTISKAKGQPREPQVYTLPPSREEMTKNQVSLSCAVKGFYPSDIAVEWESNGQPENNYKTTPPVLDSDGSFFLVSKLTVDKSRWQQGNVFSCSVMHEALHNHYTQKSLSLSKSCDKTGGGGSGGGGSGGGGSGGGGSGGGGSGGGGSGGGGSGGGGSCPSCPAPEFLGGPSVFLFPPKPKDTLMISRTPEVTCVVVDVSQEDPEVQFNWYVDGVEVHNAKTKPREEQFNSDYRVVSVLTVLHQDWLNGKEYKCKVSNKGLPSSIEKTISKAKGQPREPQVYTLPPSREEMTKNQVSLWCLVKGFYPSDIAVEWESNGQPENNYKTTPPVLDSDGSFFLYSKLTVDKSRWQQGNVFSCSVMHEALHNHYTQKSLSLSGECGGGGSGGGGSDIVMTQSPLSLPVTPGEPASISCRSTKSLLHSDGITYLYWYLQKPGQSPQLLIYQLSNLASGVPDRFSSSGSGTDFTLKISRVEAEDEGVYYCAQNLEIPRTFGCGTKLEIKRTGGGGSGGGGSGGGGSGGGGSQVQLVQSGAEVKKPGESVKISCKASGYTFTNYGMNWVRQAPGQCLKWMGWINTYTGESTYADDFKGRFAFSLDTSASTAYLQLSSLRSEDTAVYFCARFAIKGDYWGQGTLVTVSS
light: B1 light
notes: Anti-c-Met Fab / tandem Fc / anti-EpCAM scFv TFcBA; also called Antibody #7
B3: the results for the Kd (in assay [2]; with cMet-his; in assay [3]) were 15.4 nM, 2.81 nM and 25.9 nM, respectively. For the same molecule, the koff in assay [2] was determined as 0.00137 s⁻¹; with cMet-his it was 0.000554 s⁻¹; in assay [3], 0.00132 s⁻¹.

B4: Ab#5 (bispecific antibody, human IgG1, kappa)
heavy: B3 heavy with D756N, L779M, C828G, C901G
light: B1 light
notes: Anti-c-Met Fab / tandem Fc / anti-EpCAM scFv TFcBA; also called Antibody #5
As to B4, the figures for the Kd (in assay [2]; with cMet-his; in assay [3]) were 2.67 nM, 3.4 nM and 3.57 nM, respectively. Also, the koff came to 0.000194 s⁻¹ in assay [2], 0.000588 s⁻¹ with cMet-his and 0.000346 s⁻¹ in assay [3].
